PMC6107761

Columns and labels:
Details in all cases: remark: other sources report otherwise
[1] = target: T1, human wild type calcium and integrin binding protein 2 (CIB2) (human), O75838; assay: native gel or EMSA; Ferguson plot: non-denaturing continuous gels at 10, 12, 15% acrylamide, BSA as standard; 20 μM CIB2 with EGTA, Mg2+ or Ca2+ + Mg2+, 1 mM DTT, room temperature
T1 chain: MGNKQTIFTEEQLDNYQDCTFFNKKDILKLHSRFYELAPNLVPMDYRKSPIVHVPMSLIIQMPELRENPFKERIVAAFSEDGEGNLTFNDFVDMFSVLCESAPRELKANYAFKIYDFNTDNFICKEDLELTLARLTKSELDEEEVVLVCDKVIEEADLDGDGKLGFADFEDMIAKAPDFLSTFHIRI

[2] = target: T1, human wild type calcium and integrin …; assay: dynamic light scattering; Zetasizer Nano-S, 37°C; samples immediately after SEC in 20 mM Tris-HCl pH 7.5, 150 mM KCl, 1 mM DTT with 3 mM EGTA or 2 mM EGTA + 3 mM Mg2+ or 3 mM Mg2+ + 2 mM Ca2+
[3] = target: T1, human wild type calcium and integrin …; assay: SEC; analytical SEC, Superose 12 10/300GL; 20 mM Tris pH 7.5, 150 mM KCl, 1 mM DTT with 3 mM EGTA or 2 mM EGTA + 3 mM Mg2+ or 3 mM Mg2+ + 2 mM Ca2+; WT 100 μM, E64D 70 μM; MW from a calibration plot

Measured: stoichiometry N

B1: human wild type calcium and integrin binding protein 2 (CIB2), O75838-1 1-187 (natural protein)
chain: MGNKQTIFTEEQLDNYQDCTFFNKKDILKLHSRFYELAPNLVPMDYRKSPIVHVPMSLIIQMPELRENPFKERIVAAFSEDGEGNLTFNDFVDMFSVLCESAPRELKANYAFKIYDFNTDNFICKEDLELTLARLTKSELDEEEVVLVCDKVIEEADLDGDGKLGFADFEDMIAKAPDFLSTFHIRI
2: all assays above
